Test: label from the status in PepcDB records
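Also: failed if final PepcDB status was selected cloned or expressed and not failed if soluble or beyond.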

## MLLSKKSEYKTLSTVEHPQYIVFCDFDETYFPHTIDEQKQQDIYELEDYLEQKSKDGELIIGWVTGSSIESILDKMGRGKFRYFPHFIASDLGTEITYFSEHNFGQQDNKWNSRINEGFSKEKVEKLVKQLHENHNILLNPQTQLGKSRYKHNFYYQEQDEINDKKNLLAIEKICEEYGVSVNINRCNPLAGDPEDSYDVDFIPIGTGKNEIVTFMLEKYNLNTERAIAFGDSGNDVRMLQTVGNGYLLKNATQEAKNLHNLITDSEYSKGITNTLKKLIGFMRRK
  protein production: not failed

## SIEVRGKIKLGLLPETYEHLQPILFEFQDQYPQVELDIRNINNGFIDMFQQGLDIALHGGMLFDSDIVARKILTLDRCVVASPNYLQTHGTPATLEELSDHQCICFRWPNGNVDNLWHFQEQNVALKPKLISNNIGFIK
  protein production: failed

## MLSVFVVNLRSNSAPFSFSRLLMHTTIVNERSLRTCNFPITLQDIRTLKELYRLKAETRDLRKPIVRNIMKQRVVGKGCLESLKNALYSLETIYIDDYTGQRLLRIDGMKQIEVDLTYEIRELQKDIYYLEYGEDRFIEYLAKFIPGFTDYVTEGVEMLRGKSFNAFITDRDGTTNNYCGRYRSSIQPIYNSVFLSRFAKNCCRYPMIVTSAPLKDFGILNVSINPEHIFVYAGSKGREFIDIDGQFHSFPIEPGKQELIRLLNERMQLLLLDPSFEKFNFIGSALQMKFGQTTIARQDITRSVNEAESAAFLEKIKGIVRDIDPEGKNFRIEDTGLDIEIILTIDVDPKTGMIRDFDKGDGLEFICRKMNIDHTGEPVLVCGDTSSDIPMLKKAMEMYDDVWAIFVTRDEKLMQRVREICPKSYMVPYPDILLTILGLLSL
  protein production: failed

## MGNFTFEEMNLMCIYNTGSRTGLIDSLREMRGELSPEETELRELTDSALTKLCAMTDEDFAQLELYPDFDQLEHHHHHH
  protein production: not failed

## KQKRMQAMIVTNHPEKVIEKIHKKLHRGATMIHDAEGTYNHERKAVLITVITRAEFNEFKQIMTQVDPSSFVSVSENVHILGRFVEIDN
  protein production: failed

## MAEKNAYTVAQLADEYFERMIAGRWKHPNIVRSRIEKDIKPAIGSLKVEDVKPRHIDDVLKAVMKRGAPSIANDTLRWLKRMFNYAIKRHIIEYNPAAAFDPGDAGGKEKSLEHHHHHH
  protein production: not failed

## MLLHGTNRSLRTGLRARGRGSTGARGTLAVSHAAGPSSHSLTLHSCALLPYTLHAHAFFPCAQTNMASSKKAIYAAILGNFAIAVTKFLGAAVSGSSAMLAEGIHSLVDTGNGGLLLLGLRRSKRPPDENHPYGYGKSLYFYTLVVAVLIFGLGGGISLYEGILHTLDPGHGGASTASVLGVTVGGLMLNTVVLGAAIVFEGLALRTALQEFKKQRGDTPFFEAIVTSKDPTTFTVVFEDTAALAGLVVALVGIHLASLLHMPVIDGIASIIIGLILCGVAAFLIWESKKLLIGEAAAPEIRDDIRRMAHDDADIASVERLLTMHMGPRALLLNMDLRFRDDLDANTVEAAVDRLERAIRKAHPSIRYIFVEAGSIARTRASDSGASAAGGPPS
  protein production: failed

## MTQRTAFTLTVSPKIPARLSRLEELSNNLWYSWDRATRALFSRLDQQLWEAVGHSPKAFLRRVDESLLLQAAEDLTFLSHYNSVLSAYDSYHSEPSRYQAINGIEARDQVAYFCFEFGFHESLPVYSGGLGILAGDHCKAASDLCLPFVAVGLLYRQGYFFQTIDGQGNQQPVFCDSDFEDLPVKPALHDDGSEVRISVRFPGRVVTVKVWRAQIGHVGLYLLDTDLPDNSEYDRLITHQLYGGNKTMRIEQEIILGVGGVAALRAMGIKPTIWHSNEGHAAFMMLTRALELVRQGLDFASATEAVAVNTIFTTHTAVPAGHDHFPEDMMHRYFEDFYHELKISREEFMALGHTPGNHDFNMTALAIRMSRMHNGVSRIHRDVSANICHDMWPQIEPEENPIDYVTNGVHVPTFLAQEWTDLFDRRLGSQWRSKQHAPEFWSRIHDIPDHIFWSVRQSLKSQMFYGIRARLTEQNLRNHGSEAHLERLLRFVDPINPNILTLGFARRFATYKRATLLFQDLDWLRKLLLDAARPILLIFAGKAHPADLPGQALIRHIHQVADMPEFRGRILLVEGYDLRLARRLVSGVDVWLNNPIYPLEASGTSGMKAGINGTLNLSILDGWWGEGYDGKNGWGIKPVSENMEDSLRDAEESRAFYEILQDQVIPLYYDHSKFGYSADWVRMAKNSMVSLLPRYGTGRMVGEYVQKFYAPASRQGTGYSQDNFAIARSIAAWKARINAAWDGVSVRRLDTPGKQLEFGSTMHFKLAVKLNGLQPEDVVVELLLSRQYNKTRLSQFKHFRLECTGPLGSHEHQFELNHVPELCGRQQYYLRIYPYHPLLTHPLEMGKMVWLLEHHHHHH
  protein production: failed

## MRLSKEFIGLGIITASLIFGSSLPDIYKGIVILIVAGCLWFFELLPLPVTSLAIPIMAVFLGIFNLKEALTYFAHPIIFLFLGGFMLAQALKNHNLDKFIAYKLLNYGKDFKTTCFLMFLSAYFLSMWISNTSATLILLPIALGLLHKKTGKLRDFLLLGVAYSASIGGIATIIGSPPNAIASSYLDYGFFSWFKVGFPISLLLFLICTLTLYIYFKKWIPKEDIAIQARMELSRNAYKLLVIFVLIASLWIISDYLSEIFNVQYFDSVIAIFAIILLFVFNLVEVNDFKKIDWGTLILFGGALCLGGVIVKSGANTFLSEKLIAILGNLTPIVLLFLVVTITIILTNFISNTGLTGIIVPILFGVSLGIPKEILILAVGMSASCSFILPVGTPPNAIVYSEGVKKEEMMKIGMILSILSAAVITLYSILYL
  protein production: failed

## MKKVCLSLLMGLMVQMTFGQTLEKMQWFNEPEQWEIKNNVLSMSVTPQSDYWRISHYGFTVDDAPFYYATYGGEFEAKVKVVGEYKERFDQAGLMLRIDHENYIKAGIEFVDGKFNLSTVVTHKTSDWSVITLDKTVPYIWIKAVRRLDAVEIFYSFDDKTYTLMRNAWLQDHIPVKVGLMAACPDGSGFNAKFEYFQVKHLPDQRRVEWLKKNAELEHHHHHH
  protein production: failed

## MRMKHLTVAALTLLLSVSCSQRQEDYPFRNPDLPIDERIDDLLKRLTAEEKIGQMMNTTPAIERLGIPEYDWWNEALHGVARAGKATVFPQAIAMAATFDDDALYETFTMVSDEARAKYHQYQKNKEYDRYKGLTFWTPNINIFRDPRWGRGMETYGEDPYLTERMGVAVVKGLQGDDPKYFKTHACAKHYAVHSGPEWNRHEFDVTVTPRDLWQTYLPAFEALVKKGNVQEVMCAYNRYQGKPCCSSDKLLIDILRNSWGYENIILSDCGAINDFWQRDERTPRHETHPDAESASADAVLNGTDLECGNSYKALIKALKEGKISENDLDVSLRRLLKGRFELGMFDPDERVPYAQIPYNVVESPEHVAQALEMAHKSMVLLKNKNNTLPLSKTIRKIAVVGPNAADSTMLWANYNGFPTHTVTILEGIRNKVPDTEVIYELGCNHAADFVIQDLGNHITSPAGQGFASEFYNNTEFKGEAVYKGLASQLHYTTGGNTQFAPNVNLTNFTARFTGEFEAPETEQVEIKLSGNDAFRLFIGDEKVAEVWENEYGAEKTYMLNAEKGKKYPVKIEYMQRTGSADLNFQIGTRRPVDYAATAAKVKDADVIVYVGGISPRLEGEEMPVNVEGFKKGDRTNIEIPKVQQEMVKALKATGKPVVYVLCTGSALALNWEDANIDAILNAWYGGQEAGTAVADILFGDYNPSGRLPVTFYKSIDQLPDFEDYSMKGRTYRYMTETPLYPFGYGLSYTNFAYRNAKLSSGKITKDQSVTLTFDIANTGKMDGDEVAQIYIKNPNDPEGPIKALKAFLRVHVKAGDSQEVNIELTPEAFHSFNDNTQTMEVRPGKYQILYGGSSDEKALERLELTIE
  protein production: failed

## MMRLRGIPQVFRFLLLLVLAGLAGCASKAPAPEKVAPVYQPEQSKEWERQGRQAYEAGDRKMALEAWHQAVAADPANVRVRNNLALLLKEQERFEEAAEMLEAGLKVTPKVAELHYNLAVISELYLLDLDKALEHYQHYQSLVGEEGSQVAGWIADLERRLE
  protein production: failed

— a protein production outcome set (Wang et al. 2014)
